Bridges are numbered along the chain shown (N, C = ends). Where no end group is shown, it is not given here.
B1: JAM2-Fc (extracellular domain of human JAM2 fused to the constant region of mouse IgG-2a, secreted from Sf21 insect cells) (Fc fusion)
chain: FSAPKDQQVVTAVEYQEAILACKTPKKTVSSRLEWKKLGRSVSFVYYQQTLQGDFKNRAEMIDFNIRIKNVTRSDAGKYRCEVSAPSEQGQNLEEDTVTLEVLVAPAVPSCEVPSSALSGTVVELRCQDKEGNPAPEYTWFKDGIRLLENPRLGSQSTNSSYTMNTKTGTLQFNTVSKLDTGEYSCEARNSVGYRRCPGKRMQVDDLNIS
notes: In the assays it was captured on 96 well plates by goat anti-mouse IgG2a; also called recombinant JAM2; JAM2 extracellular domain; not shown: constant region of mouse IgG-2a (mIgG2a) from the modified pFastBac1 vector
B2: TBC 772, cyclic hexapeptide (C*WLDVC*), antagonist of alpha 4 integrins (peptide)
peptide: CWLDVC
modifications: bridge 1-6; also: cyclic hexapeptide, bond type between C* residues not given here
B3: soluble JAM3 (JAM3 ectodomain from a JAM3-Fc fusion digested with thrombin and purified to remove the Fc) (receptor, human, UniProt Q9BX67 32-241, looked up)
chain: VNLKSSNRTPVVQEFESVELSCIITDSQTSDPRIEWKKIQDEQTTYVFFDNKIQGDLAGRAEILGKTSLKIWNVTRRDSALYRCEVVARNDRKEIDEIVIELTVQVKPVTPVCRVPKAVPVGKMATLHCQESEGHPRPHYSWYRNDVPLPTDSRANPRFRNSSFHLNSETGTLVFTAVHKDDSGQYYCIASNDAGSARCEEQEMEVYDLN
notes: extracellular domain; It was added at a 10-fold molar ratio; also called soluble JAM3 ectodomain
B4: human JAM1-Fc (Fc fusion, UniProt Q9Y624 28-238, looked up)
chain: SVTVHSSEPEVRIPENNPVKLSCAYSGFSSPRVEWKFDQGDTTRLVCYNNKITASYEDRVTFLPTGITFKSVTREDTGTYTCMVSEEGGNSYGEVKVKLIVLVPPSKPTVNIPSSATIGNRAVLTCSEQDGSPPSEYTWFKDGIVMPTNPKSTRAFSNSSYVLNPTTGELVFDPLSASDTGEYSCEARNGYGTPMTSNAVRMEAVERNVGV
notes: not shown: Fc part not described for this construct
B5: JAM2-Fc: extracellular domain of human JAM2 secreted from Sf21 insect cells as a fusion to mIgG2a (protein)
chain: B1 chain
modifications: left off: a dimerising Fc or GST
notes: extracellular domain of human JAM2 secreted from Sf21 insect cells as a fusion to mIgG2a
B6: N-terminal Ig-fold of JAM2: first Ig domain of JAM2 synthesized as a secreted protein in insect cells (protein)
chain: FSAPKDQQVVTAVEYQEAILACKTPKKTVSSRLEWKKLGRSVSFVYYQQTLQGDFKNRAEMIDFNIRIKNVTRSDAGKYRCEVSAPSEQGQNLEEDTVTLEV
modifications: left off: a dimerising Fc or GST
notes: first Ig domain of JAM2 synthesized as a secreted protein in insect cells
B7: human JAM1-Fc: Fc fusion of JAM1, the human homologue of mouse JAM (protein)
chain: B4 chain
modifications: left off: a dimerising Fc or GST
notes: Fc fusion of JAM1, the human homologue of mouse JAM

Assays:
[1] = molecular target: T1, human JAM3 (Junctional Adhesion Molecule 3), endogenous on HSB T cells (human, UniProt Q9BX67 32-310); assay: adhesion of calcein-loaded HSB cells to captured JAM2-Fc in TBS+Ca/Mg/Mn (FIG. 7)
T1 construct: whole, on cells; also called cell surface JAM3; 43 kDa protein
T1 sequence (looked up): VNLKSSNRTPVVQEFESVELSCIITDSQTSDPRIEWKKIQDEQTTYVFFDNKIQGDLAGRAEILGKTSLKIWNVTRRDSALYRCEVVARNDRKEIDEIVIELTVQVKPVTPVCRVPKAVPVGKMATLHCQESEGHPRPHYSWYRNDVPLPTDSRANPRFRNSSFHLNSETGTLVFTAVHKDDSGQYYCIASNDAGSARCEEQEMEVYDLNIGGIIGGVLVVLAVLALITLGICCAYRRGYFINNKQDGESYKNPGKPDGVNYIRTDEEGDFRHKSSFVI
Method: In vitro adhesion assays were performed in 96 well plates essentially as described in Todderud, G., J. J. Leukoc. Biol. 52:85 (1992), herein incorporated by reference. Briefly, 50 μl of goat anti-mouse IgG2a was coated at 5 μg/ml in PBS and used to capture 4.8 pmoles of JAM2-Fc or mIgG2a (control). Various leukocyte cell lines i.e. T lymphocytes, HSB, HPB-ALL; B lymphocytes, RAMOS; monocytic cells, HL60, THP-1, and the erythroleukemic, K562 lines were labeled with calcein (Molecular Probes Inc., Eugene, Oreg.) at 50 μg/ml for 25 minutes at 37° C. with 250,000 cells/well in binding buffer that consisted of Tris buffered saline plus 1 mM each of CaCl₂, MgCl₂ and MnCl₂. Wells were washed 3×, lysed with 50 mM Tris (pH 7.5), 5 mM EDTA, 1% NP40, and fluorescence read in a Cytofluor with excitation at 485/20 nm and emission at 530/25 nm. Specific binding was calculated as fluorescence with JAM2-Fc minus fluorescence with mIgG2a. For antibody inhibition, protein captured on wells or HSB cells were incubated for 30 min at RT in binding buffer with 1:100×dilution of preimmune (normal mouse serum) or anti-JAM2 mouse polyclonal serum. […] Overall differences among experimental groups for each parameter were first assessed by one-way analysis of variance (ANOVA) and individual pairwise group comparisons were analyzed by Fisher's protected least significance difference (PLSD) post hoc test. […]

[2] = molecular target: T2, α4β1 integrin, endogenous on HSB T cells (UniProt P13612 34-1032; P05556 21-798, limits assumed); assay: inhibition of Mn-enhanced adhesion of calcein-loaded HSB cells to captured JAM2-Fc (FIG. 12B)
T2 construct: whole, on cells; also called α4 integrin; alpha 4 integrin
Method: (§1) JAM2-Fc adhesion to T cell lines was performed by capture of fusion protein by goat anti-mouse coated 96 well plates as described in Cunningham et al., J. Biol. Chem., 275:34750-34756 (2000). The HSB cells were loaded with calcien-AM (Molecular Probes Inc., Eugene Oreg.) and re-suspended in Tris Buffered Saline (TBS) with or without the addition of 1 mM MnCl₂. Binding to mouse IgG2a was used to subtract background. Soluble JAM3 was generated from a JAM3-Fc fusion that was digested with thrombin and purified to remove the Fc component. Neutralizing anti-JAM3 polyclonal serum was generated in mice using human JAM3 extracellular domain as immunogen. […] Following adhesion for 90 minutes at 37° C., wells were washed 3 times at room temperature. Adhered cells were lyzed and fluorescence quantified in a Cytofluor with excitation at 485/20 nm and emission at 530/25.

[3] = molecular target: B1; assay: the inventors' reading of the inhibition of HSB adhesion to captured JAM2-Fc by soluble JAM3 (FIG. 13A)
Method: as §1
The inventors believe that soluble JAM3 ectodomain would bind to the JAM2 on the well surface and prevent its interaction with JAM3 on the HSB cell surface. It is concluded that under these conditions, that JAM2 is unable to engage α4 integrin. Therefore, a specific interaction of JAM2 with cell-surface bound JAM3 is necessary before JAM2 can bind α4 integrin. Likewise, if neutralizing anti-JAM3 antibodies are used to prevent JAM2 binding to cell surface JAM3, then JAM2 is also unable to engage integrin (FIG. 13B).

[4] = molecular target: T1, human JAM3 (Junctional Adhesion …); assay: adhesion of calcein-loaded HSB cells to Fc fusion protein
K562 cell lines = assay: In vitro adhesion assay, calcein loaded cells on captured Fc fusion protein; assay type: cell-based; settings: binding buffer: TBS plus 1 mM calcium, magnesium and manganese; FIG. 7
Method: (§2) Biol. 52:85 (1992), herein incorporated by reference.
(§3) The capacity of JAM2 extracellular domain to adhere to various leukocyte cell lines according to a previously established in vitro binding assay performed under static conditions was next examined (see Todderud, G., J. Leukoc, Biol. 52:85(1992)). Calcein loaded cells were allowed to interact with JAM2-Fc captured in 96 well plates in binding buffer (hereinafter “BB”) which contained TBS plus 1 mM calcium, magnesium and manganese. Non-specific binding of cells to captured mIgG2a was determined simultaneously and subtracted. […] Binding to the erythroleukemic K562 cell lines was non-existent.

HPB-ALL = assay: as above; assay type: cell-based; settings: binding buffer: TBS plus 1 mM calcium, magnesium and manganese; FIG. 7
Method: as §2, §3

HSB cells = assay: as above; assay type: cell-based
Method: as §2, §3

T2 sequence (P13612 34-1032 limits assumed, chain 1 of 2): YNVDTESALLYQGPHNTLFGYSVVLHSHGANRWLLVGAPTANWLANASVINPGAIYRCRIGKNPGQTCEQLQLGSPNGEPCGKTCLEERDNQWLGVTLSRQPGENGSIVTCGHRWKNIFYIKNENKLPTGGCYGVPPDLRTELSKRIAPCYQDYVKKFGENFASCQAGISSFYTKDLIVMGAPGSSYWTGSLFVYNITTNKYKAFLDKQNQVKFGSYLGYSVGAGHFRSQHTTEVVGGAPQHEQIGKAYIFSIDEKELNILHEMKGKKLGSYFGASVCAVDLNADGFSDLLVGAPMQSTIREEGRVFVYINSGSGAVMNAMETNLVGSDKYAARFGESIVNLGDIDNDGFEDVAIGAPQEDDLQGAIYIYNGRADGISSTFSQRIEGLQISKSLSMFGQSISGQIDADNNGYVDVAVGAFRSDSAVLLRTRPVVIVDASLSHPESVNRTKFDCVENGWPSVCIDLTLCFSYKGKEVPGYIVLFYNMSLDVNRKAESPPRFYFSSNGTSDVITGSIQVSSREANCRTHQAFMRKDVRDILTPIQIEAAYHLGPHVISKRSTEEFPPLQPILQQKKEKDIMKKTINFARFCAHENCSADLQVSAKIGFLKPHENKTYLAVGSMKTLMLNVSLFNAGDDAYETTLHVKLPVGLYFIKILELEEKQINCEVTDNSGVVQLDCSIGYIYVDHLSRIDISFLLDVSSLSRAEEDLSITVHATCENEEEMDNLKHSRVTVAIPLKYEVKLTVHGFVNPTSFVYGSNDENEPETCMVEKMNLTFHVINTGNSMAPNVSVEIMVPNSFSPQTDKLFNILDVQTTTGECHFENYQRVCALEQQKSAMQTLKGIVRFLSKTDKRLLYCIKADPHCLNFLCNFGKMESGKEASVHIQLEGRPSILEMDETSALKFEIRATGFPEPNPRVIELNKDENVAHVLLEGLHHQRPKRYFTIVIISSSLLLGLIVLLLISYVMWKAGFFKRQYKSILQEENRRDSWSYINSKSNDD
T2 sequence (P05556 21-798 limits assumed, chain 2 of 2): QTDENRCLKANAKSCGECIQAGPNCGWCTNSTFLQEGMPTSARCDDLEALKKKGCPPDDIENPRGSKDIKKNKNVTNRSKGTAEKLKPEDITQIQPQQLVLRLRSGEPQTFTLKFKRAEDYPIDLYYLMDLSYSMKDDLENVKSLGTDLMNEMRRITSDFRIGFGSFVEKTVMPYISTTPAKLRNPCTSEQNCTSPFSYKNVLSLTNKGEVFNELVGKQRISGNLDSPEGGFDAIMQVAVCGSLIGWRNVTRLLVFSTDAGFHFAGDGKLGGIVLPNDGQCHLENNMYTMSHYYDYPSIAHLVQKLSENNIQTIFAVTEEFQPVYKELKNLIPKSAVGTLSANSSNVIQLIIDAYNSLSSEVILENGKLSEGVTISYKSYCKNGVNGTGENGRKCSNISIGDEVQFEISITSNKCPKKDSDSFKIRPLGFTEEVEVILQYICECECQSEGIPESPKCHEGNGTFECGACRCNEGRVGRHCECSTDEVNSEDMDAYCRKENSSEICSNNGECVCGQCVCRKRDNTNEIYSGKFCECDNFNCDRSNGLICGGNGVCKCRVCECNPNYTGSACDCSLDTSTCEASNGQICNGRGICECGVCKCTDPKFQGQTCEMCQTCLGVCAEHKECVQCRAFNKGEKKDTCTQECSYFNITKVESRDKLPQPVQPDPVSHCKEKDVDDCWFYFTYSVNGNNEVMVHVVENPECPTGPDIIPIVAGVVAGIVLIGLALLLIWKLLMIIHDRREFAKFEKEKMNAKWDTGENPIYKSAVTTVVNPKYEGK

Molecule: B1
- binding result [1]: binds

Molecule: B2
- IC50 [2]: ~60 nM

Molecule: B3
- binding result [3]: binds

Molecule: B4
- binding result [4]: no binding

Molecule: B5
- binding to K562 cells (K562 cell lines): non-existent
- capture of HPB-ALL cells (HPB-ALL): quite efficiently
- capture of HSB cells (HSB cells; binding buffer: TBS plus 1 mM calcium, magnesium and manganese, FIG. 7): quite efficiently

Molecule: B6
- adhesion to HSB cells (HSB cells; TBS and TBS+Mn, FIG. 10): capable of adhering to HSB cells

Molecule: B7
- binding of calcein loaded HSB cells (HSB cells): unable to bind
